Data taken from article PMC11429640.

Target: high-stability mutant of the MMP-9 catalytic domain (MMP9CAT*) lacking the fibronectin-like domain (human) (UniProt P14780)
Test: enzyme activity inhibition assay (fluorogenic substrate, fit to the Morrison equation); apparent Ki (Ki^app); varying concentrations of N-TIMP2 incubated with 0.26 nM MMP-9CAT* for 60 min at 37 °C in 50 mM Tris-HCl, 0.15 M NaCl, 10 mM CaCl2, 0.02% Brij-35 pH 7.5; then 7.5 µM fluorogenic substrate; at least three assays for each protein

Chain of UniProt P14780 (P14780 other isoform, or with tags, fused parts or gaps mutant): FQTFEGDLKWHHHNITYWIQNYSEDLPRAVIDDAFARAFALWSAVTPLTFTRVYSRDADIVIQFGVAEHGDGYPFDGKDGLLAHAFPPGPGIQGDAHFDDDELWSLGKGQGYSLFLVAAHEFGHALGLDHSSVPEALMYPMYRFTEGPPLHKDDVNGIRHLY

Substance: WT N-TIMP2 containing internal FLAG-tag, c-myc-tag, and His-tag (domain or fragment)
- Ki: 0.32 nM
